Experimental data reported in publication PMC10549240 (RSC Chemical Biology, 2023).
One block for each binder: values may come before it. *: point of attachment. Biotin = O=C1N[C@H]2[C@H](CS[C@H]2CCCCC(=O)*)N1; AEEA = NCCOCCOCC(=O)O

B1: Bio-PepK (peptide)
peptide: {Biotin-AEEA}-KIAALKEKIAALKEKIAALKE-NH2
SMILES: CC[C@H](C)[C@H](NC(=O)[C@H](CCCCN)NC(=O)COCCOCCNC(=O)CCCC[C@@H]1SC[C@@H]2NC(=O)N[C@@H]21)C(=O)N[C@@H](C)C(=O)N[C@@H](C)C(=O)N[C@@H](CC(C)C)C(=O)N[C@@H](CCCCN)C(=O)N[C@@H](CCC(=O)O)C(=O)N[C@@H](CCCCN)C(=O)N[C@H](C(=O)N[C@@H](C)C(=O)N[C@@H](C)C(=O)N[C@@H](CC(C)C)C(=O)N[C@@H](CCCCN)C(=O)N[C@@H](CCC(=O)O)C(=O)N[C@@H](CCCCN)C(=O)N[C@H](C(=O)N[C@@H](C)C(=O)N[C@@H](C)C(=O)N[C@@H](CC(C)C)C(=O)N[C@@H](CCCCN)C(=O)N[C@@H](CCC(=O)O)C(N)=O)[C@@H](C)CC)[C@@H](C)CC
B2: Bio-PepK-StA (peptide)
peptide: {Biotin-AEEA}-KIAALKEKIAALKEKIAALKE-NH2
SMILES: CC[C@H](C)[C@H](NC(=O)[C@H](CCCCN)NC(=O)COCCOCCNC(=O)CCCC[C@@H]1SC[C@@H]2NC(=O)N[C@@H]21)C(=O)N[C@@H](C)C(=O)N[C@@H](C)C(=O)N[C@@H](CC(C)C)C(=O)N[C@@H](CCCCN)C(=O)N[C@@H](CCC(=O)O)C(=O)N[C@@H](CCCCN)C(=O)N[C@H](C(=O)N[C@@H](C)C(=O)N[C@@H](C)C(=O)N[C@@H](CC(C)C)C(=O)N[C@@H](CCCCN)C(=O)N[C@@H](CCC(=O)O)C(=O)N[C@@H](CCCCN)C(=O)N[C@H](C(=O)N[C@@H](C)C(=O)N[C@@H](C)C(=O)N[C@@H](CC(C)C)C(=O)N[C@@H](CCCCN)C(=O)N[C@@H](CCC(=O)O)C(N)=O)[C@@H](C)CC)[C@@H](C)CC

Columns and labels:
Bio-PepK-StA = molecular target: B2; assay: fluorescence polarisation
activated PepE-Bio = activated PepE-Bio (N-terminal acetyl; C-terminal Aoa-Aoa-Lys(biotin)-NH2; glutamate side chains activated with EDC/NHS (NHS esters)); assay: cross-linking
Fluo-PepE = Fluo-PepE (fluorescein (5(6)-carboxyfluorescein)-Aoa (8-amino-3,6-dioxa-octanoic acid) on the N-terminus; C-terminal amide); assay: fluorescence polarisation

- binding result (Bio-PepK-StA): binds
Binder: {fluorescein-AEEA}-EIAALEREIAALEREIAAL-NH2 [PepE(-2C)]

- fold drop in affinity against full-length PepE (Bio-PepK-StA): ~40 fold
Binder: {fluorescein-AEEA}-EIAALEREIAALEREIA-NH2 [PepE(-4C)]

- fold drop in affinity against full-length PepE (Bio-PepK-StA): ~40 fold
Binder: {fluorescein-AEEA}-EIAALEREIAALEREI-NH2 [PepE(-5C)]

- fold drop in affinity against full-length PepE (Bio-PepK-StA): ~40 fold
Binder: {fluorescein-AEEA}-EIAALEREIAALEREIAA-NH2 [PepE(-3C)]

Binder: B1
- binding result (activated PepE-Bio): binds

- binding result (Bio-PepK-StA): binds
Binder: {fluorescein-AEEA}-EIAALEREIAALEREIAALE-NH2 [PepE(-1C)]

Binder: B2
- binding result (Fluo-PepE): binds
